Reference: article PMC4944999 (PLoS ONE, 2016)

Molecular target: PeB^GF-Lys, double substituted variant ([change], [change]) of PeB-Lys (mouse)
Test: SPR

hemagglutinin (HA) of influenza A/NewYork/55/2004 H3N2, in monovalent split vaccine (natural protein)
fold amount of hemagglutinin bound compared to PeB: 4 fold
